These results are taken from the supplement of paper PMC11246515.

This data set in a line: total protein half-life in vivo (active degradation + dilution); higher = more stable protein.
Setting [1] is: E. coli NCM3722 delta-clpP, growth: N-lim chemostat, doubling time 6 h.
Setting [2] is: E. coli NCM3722 delta-hslV, growth: N-lim chemostat, doubling time 6 h.
[3] abbreviates: E. coli NCM3722 delta-lon, growth: N-lim chemostat, doubling time 6 h.
[4] abbreviates: E. coli NCM3722 delta-smpB, growth: N-lim chemostat, doubling time 6 h.
The mark [5] stands for this setting: wild type E. coli NCM3722, growth: C-lim chemostat, doubling time 3 h.
Where [6] appears, read: wild type E. coli NCM3722, growth: C-lim chemostat, doubling time 12 h.
Where [7] appears, read: wild type E. coli NCM3722, growth: N-lim chemostat, doubling time 6 h.
[8] abbreviates: wild type E. coli NCM3722, growth: N-lim chemostat, doubling time 12 h.
Setting [9] is: wild type E. coli NCM3722, growth: P-lim chemostat, doubling time 6 h.
Where [10] appears, read: E. coli NCM3722 delta-clpP delta-lon delta-hslV, growth: N-lim chemostat, doubling time 6 h.
The mark [11] stands for this setting: wild type E. coli NCM3722, growth: C-lim chemostat, doubling time 6 h.
The mark [12] stands for this setting: wild type E. coli NCM3722, growth: P-lim chemostat, doubling time 12 h.

± gives the standard deviation of the averaged measurements. Where only a bound is given, the exact number is not on record here.

For the sequence “MKQTVYIASPESQQIHVWNLNHEGALTLTQVVDVPGQVQPMVVSPDKRYLYVGVRPEFRVLAYRIAPDDGALTFAAESALPGSPTHISTDHQGQFVFVGSYNAGNVSVTRLEDGLPVGVVDVVEGLDGCHSANISPDNRTLWVPALKQDRICLFTVSDDGHLVAQDPAEVTTVEGAGPRHMVFHPNEQYAYCVNELNSSVDVWELKDPHGNIECVQTLDMMPENFSDTRWAADIHITPDGRHLYACDRTASLITVFSVSEDGSVLSKEGFQPTETQPRGFNVDHSGKYLIAAGQKSHHISVYEIVGEQGLLHEKGRYAVGQGPMWVVVNAH”, the “total protein half-life in vivo” value worked out at 4.59 ± 0.99 h under setting [1]; 4.79 ± 0.47 h under setting [2]; 6.52 ± 0.2 h under setting [3]; 4.87 ± 0.15 h under setting [4]; 3.17 ± 0.23 h under setting [5]; 11.1 ± 2 h under setting [6]. In addition, the “total protein half-life in vivo” value was determined as 4.95 ± 0.27 h under setting [7], 9.37 ± 2.2 h under setting [8] and 6.2 ± 2.5 h under setting [9].

As for “MKQEVILVLDCGATNVRAIAVNRQGKIVARASTPNASDIAMENNTWHQWSLDAILQRFADCCRQINSELTECHIRGIAVTTFGVDGALVDKQGNLLYPIISWKCPRTAAVMDNIERLISAQRLQAISGVGAFSFNTLYKLVWLKENHPQLLERAHAWLFISSLINHRLTGEFTTDITMAGTSQMLDIQQRDFSPQILQATGIPRRLFPRLVEAGEQIGTLQNSAAAMLGLPVGIPVISAGHDTQFALFGAGAEQNEPVLSSGTWEILMVRSAQVDTSLLSQYAGSTCELDSQAGLYNPGMQWLASGVLEWVRKLFWTAETPWQMLIEEARLIAPGADGVKMQCDLLSCQNAGWQGVTLNTTRGHFYRAALEGLTAQLQRNLQMLEKIGHFKASELLLVGGGSRNTLWNQIKANMLDIPVKVLDDAETTVAGAALFGWYGVGEFNSPEEARAQIHYQYRYFYPQTEPEFIEEV”, the “total protein half-life in vivo” value under setting [10] worked out at 5.11 h; the “total protein half-life in vivo” value under setting [1] turned out to be 3.99 ± 0.14 h; the “total protein half-life in vivo” value under setting [5] was 0.905 ± 0.18 h; the “total protein half-life in vivo” value under setting [11] stood at 2.56 h; the “total protein half-life in vivo” value under setting [6] was determined as 1.49 h.

As for “MENKSARAKVQAFGGFLTAMVIPNIGAFIAWGFITALFIPTGWLPNEHFAKIVGPMITYLLPVMIGSTGGHLVGGKRGAVMGGIGTIGVIVGAEIPMFLGSMIMGPLGGLVIKYVDKALEKRIPAGFEMVINNFSLGIAGMLLCLLGFEVIGPAVLIANTFVKECIEALVHAGYLPLLSVINEPAKVLFLNNAIDQGVYYPLGMQQASVNGKSIFFMVASNPGPGLGLLLAFTLFGKGMSKRSAPGAMIIHFLGGIHELYFPYVLMKPLTIIAMIAGGMSGTWMFNLLDGGLVAGPSPGSIFAYLALTPKGSFLATIAGVTVGTLVSFAITSLILKMEKTVETESEDEFAQSANAVKAMKQEGAFSLSRVKRIAFVCDAGMGSSAMGATTFRKRLEKAGLAIEVKHYAIENVPADADIVVTHASLEGRVKRVTDKPLILINNYIGDPKLDTLFNQLTAEHKH”, the “total protein half-life in vivo” value under setting [5] amounted to 2.08 h, the “total protein half-life in vivo” value under setting [11] stood at 3.65 h and the “total protein half-life in vivo” value under setting [6] came to 8.89 h.

Turning to “MSESAFKDCFLTDVSADTRLFHFLARDYIVQEGQQPSWLFYLTRGRARLYATLANGRVSLIDFFAAPCFIGEIELIDKDHEPRAVQAIEECWCLALPMKHYRPLLLNDTLFLRKLCVTLSHKNYRNIVSLTQNQSFPLVNRLAAFILLSQEGDLYHEKHTQAAEYLGVSYRHLLYVLAQFIHDGLLIKSKKGYLIKNRKQLSGLALEMDPENKFSGMMQ [P0A9E9]”, the “total protein half-life in vivo” value was 1.56 h under setting [5] and 2.53 h under setting [6].

“MSSFDYLKTAIKQQGCTLQQVADASGMTKGYLSQLLNAKIKSPSAQKLEALHRFLGLEFPRQKKTIGVVFGKFYPLHTGHIYLIQRACSQVDELHIIMGFDDTRDRALFEDSAMSQQPTVPDRLRWLLQTFKYQKNIRIHAFNEEGMEPYPHGWDVWSNGIKKFMAEKGIQPDLIYTSEEADAPQYMEHLGIETVLVDPKRTFMSISGAQIRENPFRYWEYIPTEVKPFFVRTVAILGGESSGKSTLVNKLANIFNTTSAWEYGRDYVFSHLGGDEIALQYSDYDKIALGHAQYIDFAVKYANKVAFIDTDFVTTQAFCKKYEGREHPFVQALIDEYRFDLVILLENNTPWVADGLRSLGSSVDRKEFQNLLVEMLEENNIEFVRVEEEDYDSRFLRCVELVREMMGEQR”: the “total protein half-life in vivo” value reads like this: under setting [10], 5.91 ± 0.15 h; under setting [2], 5.88 ± 0.4 h; under setting [3], 6.4 ± 0.35 h; under setting [4], 5.71 ± 0.23 h; under setting [5], 2.975 ± 0.013 h; under setting [11], 5.76 ± 0.61 h. The “total protein half-life in vivo” value under setting [6] was found to be 10.5 ± 1.5 h; the “total protein half-life in vivo” value under setting [7] turned out to be 5.3 ± 0.24 h; the “total protein half-life in vivo” value under setting [8] was 10.6 ± 1.9 h; the “total protein half-life in vivo” value under setting [9] turned out to be 5.97 ± 0.31 h; the “total protein half-life in vivo” value under setting [12] was 10.8 ± 0.14 h.

Take “MSSLQILQGTFRLSDTKTLQLPQLTLNAGDSWAFVGSNGSGKSALARALAGELPLLKGERQSQFSHITRLSFEQLQKLVSDEWQRNNTDMLGPGEDDTGRTTAEIIQDEVKDAPRCMQLAQQFGITALLDRRFKYLSTGETRKTLLCQALMSEPDLLILDEPFDGLDVASRQQLAERLASLHQSGITLVLVLNRFDEIPEFVQFAGVLADCTLAETGAKEELLQQALVAQLAHSEQLEGVQLPEPDEPSARHALPANEPRIVLNNGVVSYNDRPILNNLSWQVNPGEHWQIVGPNGAGKSTLLSLVTGDHPQGYSNDLTLFGRRRGSGETIWDIKKHIGYVSSSLHLDYRVSTTVRNVILSGYFDSIGIYQAVSDRQQKLVQQWLDILGIDKRTADAPFHSLSWGQQRLALIVRALVKHPTLLILDEPLQGLDPLNRQLIRRFVDVLISEGETQLLFVSHHAEDAPACITHRLEFVPDGGLYRYVLTKIY”: the “total protein half-life in vivo” value by setting is: under setting [10], 4.48 ± 0.27 h; under setting [1], 4.73 ± 1.6 h; under setting [2], 3.5748 ± 0.0019 h; under setting [3], 4.54 ± 0.7 h; under setting [4], 4 ± 0.68 h; under setting [5], 2.84 ± 0.087 h. In addition, the “total protein half-life in vivo” value is, setting by setting: under setting [11], 5.233 ± 0.03 h; under setting [6], 9.21 ± 0.47 h; under setting [7], 3.942 ± 0.016 h; under setting [8], 5.56 ± 0.14 h; under setting [9], 5.68 ± 0.2 h; under setting [12], 12 ± 0.93 h.

As for “MKKKRPVLQDVADRVGVTKMTVSRFLRNPEQVSVALRGKIAAALDELGYIPNRAPDILSNATSRAIGVLLPSLTNQVFAEVLRGIESVTDAHGYQTMLAHYGYKPEMEQERLESMLSWNIDGLILTERTHTPRTLKMIEVAGIPVVELMDSKSPCLDIAVGFDNFEAARQMTTAIIARGHRHIAYLGARLDERTIIKQKGYEQAMLDAGLVPYSVMVEQSSSYSSGIELIRQARREYPQLDGVFCTNDDLAVGAAFECQRLGLKVPDDMAIAGFHGHDIGQVMEPRLASVLTPRERMGSIGAERLLARIRGESVTPKMLDLGFTLSPGGSI [P0ACP5]”, the “total protein half-life in vivo” value is, setting by setting: under setting [10], 6.42 ± 0.18 h; under setting [2], 5.79 ± 0.47 h; under setting [3], 5.99 ± 1 h; under setting [4], 5.75 ± 0.31 h; under setting [5], over 4 h; under setting [11], 6.6 ± 0.52 h. Also, the “total protein half-life in vivo” value is, setting by setting: under setting [7], 6.14 ± 0.46 h; under setting [8], 14.4 ± 1.9 h; under setting [12], over 16 h.

In the case of “MKRLHKRFLLATFCALFTATLQAADVTITVNGRVVAKPCTIQTKEANVNLGDLYTRNLQQPGSASGWHNITLSLTDCPVETSAVTAIVTGSTDNTGYYKNEGTAENIQIELRDDQDAALKNGDSKTVIVDEITRNAQFPLKARAITVNGNASQGTIEALINVIYTWQ”, the “total protein half-life in vivo” value under setting [4] was found to be 5.55 h.
